Test results as given in paper PMC3252277.

Key:
[1] = biological target: C-terminal recombinant ADAMTS-10 polypeptide (human) (UniProt Q9H324); assay: SPR; data not shown; N-terminal fibrillin-1 polypeptide with the C-terminal end of ADAMTS-10
[2] = biological target: fibrillin-1 N-terminal half (Homo sapiens) (UniProt P35555); conditions: cited from earlier work
[3] = biological target: C-terminal recombinant ADAMTS-10 polypeptide (human) (UniProt Q9H324); assay: SPR; C-terminal end of ADAMTS-10 coupled to a chip; soluble C-terminal ADAMTSL-3 at 80-0 nM; 25°C, HBS-EP buffer

Chain of UniProt Q9H324 (Q9H324 26-1103): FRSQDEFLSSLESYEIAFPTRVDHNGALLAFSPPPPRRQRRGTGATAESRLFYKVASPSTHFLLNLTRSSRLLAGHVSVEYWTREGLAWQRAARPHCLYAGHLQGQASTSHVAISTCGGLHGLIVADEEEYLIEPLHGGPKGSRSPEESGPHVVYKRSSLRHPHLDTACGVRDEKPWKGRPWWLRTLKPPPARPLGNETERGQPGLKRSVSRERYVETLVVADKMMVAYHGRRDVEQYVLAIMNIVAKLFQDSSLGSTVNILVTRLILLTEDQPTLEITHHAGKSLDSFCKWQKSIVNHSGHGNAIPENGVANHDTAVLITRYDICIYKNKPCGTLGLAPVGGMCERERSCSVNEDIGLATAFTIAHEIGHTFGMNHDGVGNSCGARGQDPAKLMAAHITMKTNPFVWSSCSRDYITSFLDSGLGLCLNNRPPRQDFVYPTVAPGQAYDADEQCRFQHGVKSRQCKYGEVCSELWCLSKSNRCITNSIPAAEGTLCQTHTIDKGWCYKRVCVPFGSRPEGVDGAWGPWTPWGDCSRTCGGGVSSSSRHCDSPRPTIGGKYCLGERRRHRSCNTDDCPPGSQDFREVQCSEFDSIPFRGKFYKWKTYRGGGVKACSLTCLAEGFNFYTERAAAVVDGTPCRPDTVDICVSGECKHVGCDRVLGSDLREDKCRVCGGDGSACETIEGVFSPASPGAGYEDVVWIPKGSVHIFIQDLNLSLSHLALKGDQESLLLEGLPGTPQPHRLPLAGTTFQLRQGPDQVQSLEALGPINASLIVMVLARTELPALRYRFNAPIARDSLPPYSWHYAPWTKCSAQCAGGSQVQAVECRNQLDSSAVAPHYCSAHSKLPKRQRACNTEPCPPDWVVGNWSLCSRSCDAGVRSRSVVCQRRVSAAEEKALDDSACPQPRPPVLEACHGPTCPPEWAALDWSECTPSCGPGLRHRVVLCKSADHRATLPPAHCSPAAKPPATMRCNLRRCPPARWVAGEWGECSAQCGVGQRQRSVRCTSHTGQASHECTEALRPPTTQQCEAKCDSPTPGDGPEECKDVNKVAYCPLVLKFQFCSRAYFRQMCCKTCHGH
Chain of UniProt P35555 (P35555 45-1527): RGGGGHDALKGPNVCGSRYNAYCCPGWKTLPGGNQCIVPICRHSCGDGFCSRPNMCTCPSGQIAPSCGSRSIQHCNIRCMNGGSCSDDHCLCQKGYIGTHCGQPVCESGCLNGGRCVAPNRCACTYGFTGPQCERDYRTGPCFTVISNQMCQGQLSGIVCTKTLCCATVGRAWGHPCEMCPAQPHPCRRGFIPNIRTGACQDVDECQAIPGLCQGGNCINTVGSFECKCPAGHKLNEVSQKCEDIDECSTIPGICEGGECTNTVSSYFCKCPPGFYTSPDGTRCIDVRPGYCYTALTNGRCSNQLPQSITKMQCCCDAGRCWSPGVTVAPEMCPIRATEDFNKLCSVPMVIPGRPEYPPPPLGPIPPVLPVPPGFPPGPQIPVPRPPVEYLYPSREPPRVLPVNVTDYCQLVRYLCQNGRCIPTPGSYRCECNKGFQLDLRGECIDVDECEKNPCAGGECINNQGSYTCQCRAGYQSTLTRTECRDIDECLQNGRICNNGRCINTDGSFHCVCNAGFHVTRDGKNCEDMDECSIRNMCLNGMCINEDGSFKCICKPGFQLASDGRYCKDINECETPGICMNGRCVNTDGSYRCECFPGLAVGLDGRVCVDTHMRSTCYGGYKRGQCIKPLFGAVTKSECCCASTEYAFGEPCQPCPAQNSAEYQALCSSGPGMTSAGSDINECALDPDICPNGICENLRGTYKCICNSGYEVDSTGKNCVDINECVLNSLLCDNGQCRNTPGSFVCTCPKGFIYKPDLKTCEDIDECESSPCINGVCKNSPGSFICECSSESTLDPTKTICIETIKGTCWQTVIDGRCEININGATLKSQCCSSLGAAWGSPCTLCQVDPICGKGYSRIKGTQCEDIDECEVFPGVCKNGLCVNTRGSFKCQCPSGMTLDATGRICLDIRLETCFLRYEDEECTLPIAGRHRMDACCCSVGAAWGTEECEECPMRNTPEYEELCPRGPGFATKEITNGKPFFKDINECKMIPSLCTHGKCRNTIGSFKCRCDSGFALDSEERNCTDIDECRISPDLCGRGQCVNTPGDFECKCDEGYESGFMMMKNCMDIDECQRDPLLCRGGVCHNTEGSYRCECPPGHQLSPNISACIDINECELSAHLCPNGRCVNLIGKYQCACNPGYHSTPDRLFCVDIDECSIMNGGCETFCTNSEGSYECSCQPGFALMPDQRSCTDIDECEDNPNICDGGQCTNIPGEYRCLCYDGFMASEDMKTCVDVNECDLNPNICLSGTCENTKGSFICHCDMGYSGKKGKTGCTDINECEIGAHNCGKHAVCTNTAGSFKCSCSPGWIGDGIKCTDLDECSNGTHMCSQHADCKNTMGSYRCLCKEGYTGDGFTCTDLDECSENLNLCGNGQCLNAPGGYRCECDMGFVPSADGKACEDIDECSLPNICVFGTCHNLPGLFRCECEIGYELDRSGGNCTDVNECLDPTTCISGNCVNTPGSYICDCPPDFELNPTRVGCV

“rF90, recombinant N-terminal half of wildtype fibrillin-1 (from UniProt P35555 25-2871) (domain or fragment)” gave a Kd [1] of 450 nM.
For ADAMTSL-6 (from UniProt Q6ZMP0), the Kd [2] is given as 80 nM.
Substance “C-terminal ADAMTSL-3 polypeptide (domain or fragment)” has a Kd [3] of 2 nM.
